Test results published in PMC3520970 (PLoS ONE, 2012).
Substitutions are numbered along the chain they refer to. In names and notes the source's numbering stands.

T1: His-Myc-tagged MOD (maize, UniProt P25891 17-286, Δ163–164 | Δ167–189, labelled with the crosslinker NHS-SS-Diazirine (SDAD))
T1 construct: source: E. coli BL21(DE3)pLysS, purified (HisTrap); not shown: Myc, C-terminal, kept
T1 sequence: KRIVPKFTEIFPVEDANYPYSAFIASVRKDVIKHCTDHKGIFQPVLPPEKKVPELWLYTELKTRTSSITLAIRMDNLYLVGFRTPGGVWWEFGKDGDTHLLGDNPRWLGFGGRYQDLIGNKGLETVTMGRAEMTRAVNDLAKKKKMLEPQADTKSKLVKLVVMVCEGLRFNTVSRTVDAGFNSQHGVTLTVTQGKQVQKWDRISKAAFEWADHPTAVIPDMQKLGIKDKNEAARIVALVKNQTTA

B1: Maize [Δ1–16, Δ163–164, Δ167–189, Δ287–300]-Pro-RIP (enzyme)
chain: T1 sequence
B2: MOD [K158A-K161A] (enzyme)
chain: T1 sequence with K142A, K143A, K144A, K145A
B3: Maize [Δ1–16, Δ287–300]-Pro-RIP (enzyme)
chain: KRIVPKFTEIFPVEDANYPYSAFIASVRKDVIKHCTDHKGIFQPVLPPEKKVPELWLYTELKTRTSSITLAIRMDNLYLVGFRTPGGVWWEFGKDGDTHLLGDNPRWLGFGGRYQDLIGNKGLETVTMGRAEMTRAVNDLAKKKKMATLEEEEVQMQMQMPEAADLAAAAAADPQADTKSKLVKLVVMVCEGLRFNTVSRTVDAGFNSQHGVTLTVTQGKQVQKWDRISKAAFEWADHPTAVIPDMQKLGIKDKNEAARIVALVKNQTTA
B4: P2 on rat liver ribosome (natural protein, rat (endogenous in rat liver ribosome), UniProt P02401 1-115, looked up)
chain: MRYVASYLLAALGGNSNPSAKDIKKILDSVGIEADDERLNKVISELNGKNIEDVIAQGVGKLASVPAGGAVAVSAAPGSAAPAAGSAPAAAEEKKDEKKEESEESDDDMGFGLFD
notes: also called P-protein P2

Legend:
[1] = target: Ribosomal protein P2 (UniProt P05387)
[2] = target: Ribosomal protein P2 (UniProt P05387); assay: SPR; BIAcore 3000; P2 amine-coupled to CM5 chip (1300 RU); RIPs injected at 30 µl/min in 20 mM Tris, 30 mM NaCl, 0.005% Tween 20, pH 7.4; KD from RU at equilibrium
[3] = target: P2 on rat liver ribosome (rat (endogenous in rat liver ribosome)) (UniProt P02401); settings: scale: arbitrary
[4] = target: Ribosomal protein P2 (UniProt P05387 1-115); assay: cell-based or functional assay
[5] = target: B4; assay: cell-based or functional assay
[6] = target: T1, His-Myc-tagged MOD; assay: cross-linking; SDAD-labelled Myc-MOD (90 µM) with rat liver ribosome (0.8 µM) in PBS, room temperature 30 minutes, UV 365 nm for an hour; western blot with anti-Myc and anti-P; settings: both partners purified

Molecule | N-glycosidase activity on rat liver ribosome, folds increased to untreated [5] [fold] | relative N-glycosidase activity on rat liver ribosome (5 nM RIP, qPCR) [5] | other results
Trichosanthin (enzyme) |  |  | cytotoxicity to 293T cells (MTT, 72 hours), EC50 [1]: 0.63 µM; Kd [2]: 612 µM; relative N-glycosidase activity on rat liver ribosome (5 nM RIP, qPCR) [3]: 2610
B1 | 14.3 | 54.3 arbitrary (ratio multiplied by an arbitrary factor) | cytotoxicity to 293T cells (MTT, 72 hours), IC50 (also called EC50) [4]: 7.88 µM
B2 | 0.85 | 3.24 arbitrary (ratio multiplied by an arbitrary factor) | 
B3 | 1.59 | 6.06 arbitrary (ratio multiplied by an arbitrary factor) | 
B4 |  |  | binding result [6]: binds
